Holding throughout (conditions): both partners purified
Test [1] has as its target T1, N-D1 fragment of p97 L198W, long form (^ND1p97^mt, residues 1-480) (UniProt P55072 1-480, L198W).
T1 construct: p97 (VCP), N-D1 fragment, residues 1-480, pathogenic mutation L198W; also called ND1p97 L198W (1-480); source: purified; expression and purification as described previously [13, 42, 44]
In words: pull-down; GST-VIMP variants on glutathione resin, p97 proteins in solution; 20 mM Tris pH 8.0, 150 mM NaCl, 3 mM MgCl2, 10% glycerol, 0.1% Triton X-100, 4 C, 2 mM ATPγS or AMP-PNP (Figures 3b and 4e: AMP-PNP); SDS-PAGE.

Test [2] addresses T2, full-length p97 A232E (^FLp97^mt) (UniProt P55072 1-806, A232E).
T2 construct: p97 (VCP), full-length, residues 1-806, MSP1-associated mutation A232E; also called FLp97 A232E; pathogenic p97 variant A232E; source: purified; expression and purification as described previously [13, 42, 44]
The description is as above.

For test [3], the target named is T3, N-D1 fragment of p97 R155H, long form (^ND1p97^mt, residues 1-480) (UniProt P55072 1-480, R155H).
T3 construct: p97 (VCP), N-D1 fragment, residues 1-480, pathogenic mutation R155H; also called ND1p97 R155H; source: purified; expression and purification as described previously [13, 42, 44]
T3 sequence (P55072 1-480 R155H): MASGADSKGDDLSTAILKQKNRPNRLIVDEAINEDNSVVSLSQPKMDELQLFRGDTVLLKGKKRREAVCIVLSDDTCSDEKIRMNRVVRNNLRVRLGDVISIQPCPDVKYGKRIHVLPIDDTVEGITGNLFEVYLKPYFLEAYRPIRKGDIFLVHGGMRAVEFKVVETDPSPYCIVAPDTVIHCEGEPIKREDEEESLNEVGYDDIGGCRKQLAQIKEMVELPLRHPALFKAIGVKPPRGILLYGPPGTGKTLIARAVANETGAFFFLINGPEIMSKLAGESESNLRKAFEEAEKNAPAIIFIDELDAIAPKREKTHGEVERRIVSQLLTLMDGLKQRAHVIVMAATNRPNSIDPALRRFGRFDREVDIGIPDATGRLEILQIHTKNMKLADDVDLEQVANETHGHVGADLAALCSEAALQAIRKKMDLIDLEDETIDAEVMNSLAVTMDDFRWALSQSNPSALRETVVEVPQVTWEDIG
The test is described as above.

In test [4] the target is T4, N-D1 fragment of p97 A232E, long form (^ND1p97^mt, residues 1-480) (UniProt P55072 1-480, A232E).
T4 construct: p97 (VCP), N-D1 fragment, residues 1-480, pathogenic mutation A232E; also called ND1p97 A232E (1-480); source: purified; expression and purification as described previously [13, 42, 44]
T4 sequence (P55072 1-480 A232E): as the sequence (P55072 1-480 R155H) above, with H155R, A232E counted along it
Described as above.

The target of test [5] is T5, N-D1 fragment of wild-type p97, long form (^ND1p97^wt, residues 1-480) (UniProt P55072 1-480).
T5 construct: p97 (VCP), N-D1 fragment, residues 1-480 (the form used in pull-down and ITC); also called N-D1 long; source: purified; expression and purification as described previously [13, 42, 44]
T5 sequence (P55072 1-480): as the sequence (P55072 1-480 R155H) above, with H155R counted along it
The test is described as above.

Test [6] has as its target T6, full-length p97 R155H (^FLp97^mt) (UniProt P55072 1-806, R155H).
T6 construct: p97 (VCP), full-length, residues 1-806, MSP1-associated mutation R155H; also called FLp97 R155H; pathogenic p97 variant R155H; source: purified; expression and purification as described previously [13, 42, 44]
The description is as above.

Test [7] deals with T7, full-length wild-type p97 (^FLp97^wt) (UniProt P55072 1-806).
T7 construct: p97 (valosin-containing protein, VCP), full-length, residues 1-806; also called VCP; valosin-containing protein; source: purified; expression and purification as described previously [13, 42, 44]
T7 sequence (P55072 whole entry, the tested form may be a part): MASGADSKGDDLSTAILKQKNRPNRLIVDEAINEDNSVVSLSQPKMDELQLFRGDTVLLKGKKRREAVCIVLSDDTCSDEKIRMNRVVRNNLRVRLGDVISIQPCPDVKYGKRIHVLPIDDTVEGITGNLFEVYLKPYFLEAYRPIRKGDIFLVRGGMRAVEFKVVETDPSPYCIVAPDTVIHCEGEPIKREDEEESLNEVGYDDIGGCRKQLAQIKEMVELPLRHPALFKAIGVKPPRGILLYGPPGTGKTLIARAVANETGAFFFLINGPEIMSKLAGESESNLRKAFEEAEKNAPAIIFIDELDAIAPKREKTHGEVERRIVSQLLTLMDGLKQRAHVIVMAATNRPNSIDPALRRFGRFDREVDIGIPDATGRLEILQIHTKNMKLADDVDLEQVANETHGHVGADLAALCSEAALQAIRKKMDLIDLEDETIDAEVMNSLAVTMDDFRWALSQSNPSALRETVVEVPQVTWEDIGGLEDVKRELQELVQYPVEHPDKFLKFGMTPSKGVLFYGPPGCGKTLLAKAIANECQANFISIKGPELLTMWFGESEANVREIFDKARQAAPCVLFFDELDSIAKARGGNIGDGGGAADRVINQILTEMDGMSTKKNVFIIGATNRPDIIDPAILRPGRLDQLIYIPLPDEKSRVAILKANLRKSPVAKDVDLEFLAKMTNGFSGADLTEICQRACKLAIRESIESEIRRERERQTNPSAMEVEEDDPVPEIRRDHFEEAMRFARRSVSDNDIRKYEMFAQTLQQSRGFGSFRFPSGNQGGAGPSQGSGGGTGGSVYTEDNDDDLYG
The test is described as above.

The target in test [8] is T8, full-length p97 L198W (^FLp97^mt) (UniProt P55072 1-806, L198W).
T8 construct: p97 (VCP), full-length, residues 1-806, MSP1-associated mutation L198W; also called FLp97 L198W; pathogenic p97 variant L198W; source: purified; expression and purification as described previously [13, 42, 44]
T8 sequence (P55072 whole entry L198W, the tested form may be a part): as the sequence (P55072 whole entry, the tested form may be a part) above, with L198W counted along it
Described as above.

The target in test [9] is T9, FLp97wt (full-length wild-type p97, residues 1-806) (UniProt P55072 1-806).
T9 construct: p97 (valosin-containing protein, VCP), full length, residues 1-806, wild type; also called VCP; valosin-containing protein
T9 sequence (P55072 whole entry, the tested form may be a part): as the sequence (P55072 whole entry, the tested form may be a part) above
Description: ITC; VIMPx titrated into p97; iTC200, 25 C; 50 mM Tris pH 8.0, 150 mM NaCl, 2 mM MgCl2, 5% glycerol; 2 mM AMP-PNP in both samples; one-site model. For orientation: Isothermal titration calorimetry measures the heat released or taken up as one component is titrated into another.

For test [10], the target named is T10, ND1p97wt (N-D1 fragment of wild-type p97, residues 1-480) (UniProt P55072 1-480).
T10 construct: p97 (valosin-containing protein, VCP), N-D1 long fragment, residues 1-480, wild type; also called N-D1 long; ND1p97 (residue 1-480)
T10 sequence (P55072 1-480): as the sequence (P55072 1-480 R155H) above, with H155R counted along it
The test is described as above.

In test [11] the target is T10, ND1p97wt (N-D1 fragment of wild-type …). In words: ITC; VIMPx titrated into p97; iTC200, 25 C; 50 mM Tris pH 8.0, 150 mM NaCl, 2 mM MgCl2, 5% glycerol; 2 mM ADP in both samples; one-site model.

T1 sequence (P55072 1-480 L198W): as the sequence (P55072 1-480 R155H) above, with H155R, L198W counted along it
T6 sequence (P55072 whole entry R155H, the tested form may be a part): as the sequence (P55072 whole entry, the tested form may be a part) above, with R155H counted along it
T2 sequence (P55072 whole entry A232E, the tested form may be a part): as the sequence (P55072 whole entry, the tested form may be a part) above, with A232E counted along it

B1: GST-tagged cytosolic segment of VIMP (GST-VIMPc, residues 49-187) (domain or fragment, UniProt Q9BQE4 49-187, looked up)
chain: QKLSARLRALRQRQLDRAAAAVEPDVVVKRQEALAAARLKMQEELNAQVEKHKEKLKQLEEEKRRQKIEMWDSMQEGKSYKGNAKKPQEEDSPGPSTSSVLKRKSDRKPLRGGGYNPLSGEGGGACSWRPGRRGPSSGG
notes: source: held on glutathione resin
Turning to B1, the binding result in test [1], in [2], in [3], in test [4], in test [5] and in test [6] was “binds” in each case. Also, the binding result in test [7] and in test [8] was “binds” in each case.

B2: GST-VIMP minimal fragment (A69-E108) (domain or fragment, UniProt Q9BQE4 69-108, looked up)
chain: AVEPDVVVKRQEALAAARLKMQEELNAQVEKHKEKLKQLE
notes: VIMP (selenoprotein S), 40 residues A69-E108; source: held on glutathione resin
Take B2: in test [7], the binding result is listed as “binds”.

B3: VIMPx (VCP-interacting membrane protein, residues 49-122) (domain or fragment, UniProt Q9BQE4 49-122, looked up)
chain: QKLSARLRALRQRQLDRAAAAVEPDVVVKRQEALAAARLKMQEELNAQVEKHKEKLKQLEEEKRRQKIEMWDSM
notes: VIMP (selenoprotein S), fragment of the cytosolic segment, residues 49-122 (stop codon after M122); also called His-VIMPx; selenoprotein S; source: E. coli BL21(DE3), purified (Ni-NTA, Superdex 75)
The term Kd denotes the constant that tells how readily two partners part at equilibrium. The low end stands for tighter binding, the high end for weaker binding. In general, stoichiometry N refers to the number of molecules, sites or subunits per partner or assembly. On to B3, for which the dissociation constant (Kd) in test [9] is 7 ± 0.13 µM; in [10], 5.52 ± 0.26 µM; in test [11], 6.21 ± 0.85 µM. Moreover, the “stoichiometry N” value turned out to be 0.66 ± 0.08 in test [9], 0.98 ± 0.05 in test [10] and 1.13 ± 0.06 in [11].
